System: Escherichia coli TOP10
Experiment: shrunken log2 fold change of peptide-encoding DNA abundance (4.5 h post-induction vs induction); higher = less antimicrobial activity (less host growth inhibition)
Details: time post-induction: 4.5 h; library: site-saturation at positions 5, 18, 19, 20
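Also: peptides expressed intracellularly from a pBAD plasmid library in pooled LB shake-flask culture, induced with 0.3% L-arabinose, DNA abundance read by NGS, three biological replicates, DESeq2 with apeglm shrinkage.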

First: RRIRNRPPRLPRPRPRPMTQPRP
Second: RRIRQRPPRLPRPRPRPPGRPRP
The “shrunken log2 fold change” value of the first is lower: -0.249 for the first, 0.853 for the second.

RRIRMRPPRLPRPRPRPCFPPRP and RRIRCRPPRLPRPRPRPIWCPRP are within 0.2 log units of each other in “shrunken log2 fold change” value: 0.157 for the first, 2.08e-06 for the second.

Compared with RRIRFRPPRLPRPRPRPPHGPRP, RRIRSRPPRLPRPRPRPGTCPRP is lower in “shrunken log2 fold change” value: 0.364 for the first, 0.148 for the second.

Compared with RRIRIRPPRLPRPRPRPWCEPRP, RRIRHRPPRLPRPRPRPILTPRP is higher in “shrunken log2 fold change” value: -0.639 for the first, -0.201 for the second.

RRIRDRPPRLPRPRPRPDVPPRP and RRIRTRPPRLPRPRPRPAFKPRP are within 0.2 log units of each other in “shrunken log2 fold change” value: 0.221 for the first, 0.143 for the second.

Going from RRIRFRPPRLPRPRPRPGAEPRP to RRIRWRPPRLPRPRPRPSRLPRP, the “shrunken log2 fold change” value falls from 0.286 to 0.00373.

Compared with RRIRWRPPRLPRPRPRPYEPPRP, RRIRNRPPRLPRPRPRPTRVPRP is higher in “shrunken log2 fold change” value: -0.261 for the first, 0.376 for the second.

Going from RRIRNRPPRLPRPRPRPYIGPRP to RRIRWRPPRLPRPRPRPCWHPRP, the “shrunken log2 fold change” value falls from 0.0261 to -0.259.

First: RRIRARPPRLPRPRPRPGYAPRP
Second: RRIRDRPPRLPRPRPRPARVPRP
The “shrunken log2 fold change” value of the first is lower: 0.0374 for the first, 0.948 for the second.

Compared with RRIRHRPPRLPRPRPRPATQPRP, RRIRSRPPRLPRPRPRPTPYPRP is lower in “shrunken log2 fold change” value: -0.038 for the first, -0.26 for the second.

First: RRIRSRPPRLPRPRPRPEMFPRP
Second: RRIRGRPPRLPRPRPRPSNGPRP
The “shrunken log2 fold change” value of the first is lower: -0.0055 for the first, 2.8 for the second.

First: RRIRFRPPRLPRPRPRPLNQPRP
Second: RRIRCRPPRLPRPRPRPCVLPRP
The “shrunken log2 fold change” value of the first is higher: -0.282 for the first, -0.7 for the second.

RRIRLRPPRLPRPRPRPIGGPRP and RRIRPRPPRLPRPRPRPLRLPRP are within 0.2 log units of each other in “shrunken log2 fold change” value: 0.0938 for the first, 0.2 for the second.

RRIRYRPPRLPRPRPRPDRYPRP and RRIRGRPPRLPRPRPRPHIPPRP are within 0.2 log units of each other in “shrunken log2 fold change” value: -0.0871 for the first, -0.101 for the second.

RRIRGRPPRLPRPRPRPDNWPRP and RRIRKRPPRLPRPRPRPFAFPRP are within 0.2 log units of each other in “shrunken log2 fold change” value: 0.347 for the first, 0.272 for the second.

Compared with RRIRIRPPRLPRPRPRPAERPRP, RRIRMRPPRLPRPRPRPKYAPRP is higher in “shrunken log2 fold change” value: 0.0773 for the first, 0.928 for the second.

Going from RRIRERPPRLPRPRPRPMFNPRP to RRIRWRPPRLPRPRPRPPSVPRP, the “shrunken log2 fold change” value rises from -0.607 to 0.171.

First: RRIRTRPPRLPRPRPRPLSMPRP
Second: RRIRWRPPRLPRPRPRPTVWPRP
The “shrunken log2 fold change” value of the first is lower: -0.238 for the first, 0.533 for the second.

Compared with RRIRPRPPRLPRPRPRPQIIPRP, RRIRIRPPRLPRPRPRPRILPRP is higher in “shrunken log2 fold change” value: -0.447 for the first, -0.188 for the second.

Going from RRIRERPPRLPRPRPRPQDTPRP to RRIRPRPPRLPRPRPRPHNFPRP, the “shrunken log2 fold change” value falls from 2.38 to 0.0735.

RRIRYRPPRLPRPRPRPMSFPRP and RRIRKRPPRLPRPRPRPWKQPRP are within 0.2 log units of each other in “shrunken log2 fold change” value: -0.00962 for the first, 0.0185 for the second.

RRIRYRPPRLPRPRPRPLTDPRP and RRIRHRPPRLPRPRPRPKLIPRP are within 0.2 log units of each other in “shrunken log2 fold change” value: -0.134 for the first, -0.0143 for the second.

Going from RRIRDRPPRLPRPRPRPFWNPRP to RRIRIRPPRLPRPRPRPFDAPRP, the “shrunken log2 fold change” value rises from -0.28 to -0.0176.

Going from RRIRDRPPRLPRPRPRPQYGPRP to RRIRWRPPRLPRPRPRPSCQPRP, the “shrunken log2 fold change” value rises from -0.414 to 0.232.

Compared with RRIRKRPPRLPRPRPRPGFDPRP, RRIRFRPPRLPRPRPRPEWKPRP is lower in “shrunken log2 fold change” value: 0.98 for the first, 0.0211 for the second.

Compared with RRIRWRPPRLPRPRPRPGGNPRP, RRIRNRPPRLPRPRPRPVVHPRP is lower in “shrunken log2 fold change” value: 0.0972 for the first, -0.165 for the second.

RRIRYRPPRLPRPRPRPPCCPRP and RRIRHRPPRLPRPRPRPLTWPRP are within 0.2 log units of each other in “shrunken log2 fold change” value: -0.149 for the first, -0.135 for the second.

First: RRIRRRPPRLPRPRPRPTIAPRP
Second: RRIRDRPPRLPRPRPRPPDRPRP
The “shrunken log2 fold change” value of the first is lower: 0.0702 for the first, 0.468 for the second.

RRIRLRPPRLPRPRPRPMTNPRP and RRIRLRPPRLPRPRPRPSKFPRP are within 0.2 log units of each other in “shrunken log2 fold change” value: -0.0811 for the first, -0.276 for the second.

First: RRIRDRPPRLPRPRPRPQYDPRP
Second: RRIRIRPPRLPRPRPRPTMAPRP
The “shrunken log2 fold change” value of the first is higher: -0.0265 for the first, -0.445 for the second.

Going from RRIRQRPPRLPRPRPRPVRWPRP to RRIRLRPPRLPRPRPRPNSYPRP, the “shrunken log2 fold change” value falls from 0.428 to -0.3.

Compared with RRIRWRPPRLPRPRPRPTGMPRP, RRIRQRPPRLPRPRPRPKHDPRP is lower in “shrunken log2 fold change” value: 0.117 for the first, -0.121 for the second.

Going from RRIRYRPPRLPRPRPRPGITPRP to RRIRRRPPRLPRPRPRPALQPRP, the “shrunken log2 fold change” value rises from -0.444 to 1.92.

RRIRQRPPRLPRPRPRPHYVPRP and RRIRTRPPRLPRPRPRPNQLPRP are within 0.2 log units of each other in “shrunken log2 fold change” value: -0.123 for the first, -0.101 for the second.

RRIRVRPPRLPRPRPRPTETPRP and RRIRYRPPRLPRPRPRPSATPRP are within 0.2 log units of each other in “shrunken log2 fold change” value: 0.0324 for the first, -0.104 for the second.

Compared with RRIRMRPPRLPRPRPRPMFVPRP, RRIRFRPPRLPRPRPRPTINPRP is lower in “shrunken log2 fold change” value: -0.298 for the first, -0.508 for the second.

Compared with RRIRGRPPRLPRPRPRPIRAPRP, RRIRNRPPRLPRPRPRPWSFPRP is lower in “shrunken log2 fold change” value: 0.602 for the first, -0.538 for the second.

With RRIRLRPPRLPRPRPRPYISPRP the “shrunken log2 fold change” value was -0.374.

From the supplement of paper PMC9112550, “Optimization of the antimicrobial peptide Bac7 by deep mutational scanning” (BMC Biology, 2022)
